Laboratory results published in the domain aggregation screens of Martell et al. (2025).

Assay: soluble fraction after stress (log2 fold change); higher = more stays soluble; pooled small domains, quantitative proteomics
Settings: stress: 75 degC
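Note: 20 min heating vs room temperature control held 20 min.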

| Sequence | soluble fraction (log2) |
| --- | --- |
| HMETFGLSQRELQILSQLHKGQPLKEFAASLFITESTLKTHLSAIYRKMSVKNRVQAIEKAKQSGL | -1.4 |
| HMETGEDSLRRYFNSLPGSASKREILEDNPTVSQRTTERILQKLQAEGFIEKVGAARATRYRKVKQ | 0.259 |
| HMETGELQQILEDVFSKNIGIVQDKREAAFSILMGMIMAKSRGRADGALVSTLLKKKLTEFLATSDQVR | -0.0719 |
| HMETGNEDYRVGKELAYDGNYKAATIYLMKSIKDDPNNPDAFNMLGFSHRKLGNNDEAYIYYNKALEL | -0.275 |
| HMETKKEIIEAINELEEKYRNAIYLTSIEKLSYEETSKILGQSLSNTKNLIHRGKQQLRKILIKK | -0.772 |
| HMETLEDHRKKTRQQLFDALSHLLQTSTFESLTMAKIAEEAGVGRTAVYNHFQDKEALLLAFITYETGQ | -1.74 |
| HMETLETYTSRLRQLEDITNNFKGVDKSFAIQAGREIRVMVVPEQVSDADMILMARDISKAIEAELEYPGQ | 0.0937 |
| HMETLGADLRALRKSRGLTLLDMAESLGRSVGWLSQVERDLSDPSISDLREIAELLGVPISMLFRH | -2.83 |
| HMETLKEMDSKGAINASEVNVREGAGTSSSKMYSLSKGASVDVTGIKGDWYRVHTSKGTGYVLAKYVTLVS | -0.29 |
| HMETLYGQIVNDIMEKIESNAWPVGYVIPTESDFQKQYGVSRATVRNAILKLAHLGYLVRKKGSGTYVTRP | -1.25 |
| HMETPEIPGLTPRQVEIMLLVGKGYSNKEIARFLTISPETVKTHLKEVFLRFGLRNRVEAIDFTRQNGL | -0.656 |
| HMETPLSAADFKIVFGEEYEIGTDANGLPKMGSRINRQLQNRFLTWASVNKRKATMSAYQDWVASDPAAQ | -0.323 |
| HMETQVKVPNVVGMTQSKAIAKLKESKLDYEVQEQKHDGDKGKVVDQSEAEGTYVDRGTKVIIYVSTGE | -0.437 |
| HMETSIQFIRLEIGHNHPWVNQTLKEIPTIPGTLIAAVLRGDEDQAIIPKGDTLLKEGDSVIIGAKEYQD | -1.42 |
| HMETSLVIQIDGAVNSPGIYQVTPGTRIFEALELAGGVREDAQTEALNLALPVYDGQRISIPSSFA | -0.153 |
| HMETTVSYSGVVTASVLRIRKGPSVSSSVAGTLKKGTGVSIIFEDNGWGKLADGSGWVSLTYIKKNSTP | -2.33 |
| HMETWDQAYETIKQNILNLTYPPGMPLTEAKLAEELGMSRSPVRTALRMLQTDGLIVTDYYKSMTVKEI | -1.95 |
| HMETWKLYKRAYKKYYARYMKGNMSEADFKAWATQAAADRDAAIEQITPEIDAALKAQIIEQLREKLNR | -1.11 |
| HMEVAAAENYRSKLSSFAKDTISVWQTELLLGTISDDDKASLTEWMAYIKALQVVDTSDPESITWPTEPT | -1.14 |
| HMEVAASEQRDNLWALARRVLSGEQYDVLYLRYVEDFSVAQIADVVGKTQTHVKVLLFRGRNNLGSRLRS | 0.0441 |
| HMEVENAQLLARLTPQEHRVFERVVAGLSNREIGSEMDISIKTVEVHRARVMRKLEANSVAELVRFHIHN | -2.37 |
| HMEVGDTYLGKVTRVSSFGAFIEVLPGKEGLMRQNDAGEGGMPEVGDEVMVRVMEVDHLGRINLSGKLDD | -0.102 |
| HMEVGKRIAEIRKENRMSQEQFGQLFHVTRQTVSNWENAKSYPDLQTLVKISELFEITMDELLK | -1.45 |
| HMEVKVSGHLEAIGGVYHMKLSWIDDAGKRRRKSKSTGLAERGNKKRANDMLIDFMREQEAEIAASGD | -2.05 |
| HMEVLSKRGSTGTEVINIQKKLKNWGYYTGSVDGIYGKLTEEAVRYFQRTNGLTVDGIAGKNTLAAMGIA | -0.619 |
| HMEVNLEPLIALLRKHRDLDLSGYSKSTLGRRITYFMGLNKISSIDELGRRLAEDDLLFQEFLDKLT | -0.264 |
| HMEVSLEDKMDYLTNYATTHKNFSFRNLLESSSGKIEVIVTFLAILELMKMGRINISQEHIFDDIIIESRI | -2.68 |
